Measured values taken from patent US20250019439A1 (Adimab, published 2025).

Assays:
CTL-62223 = biological target: T1, CTL-62223; test: SPR Carterra avidity, yeast anti-ID
T1 construct: also called mosunetuzumab
Outline: (§1)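 Surface plasmon resonance on a Carterra LSA at 25° C, HBSTE buffer. The anti-CD3 antibody is Fc-captured (100 nM, 5 min) and the anti-idiotype antibody serves as analyte; dissociation lasts 300s and the surface is regenerated with 10 mM glycine pH 1.7.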

ADI-26921 IgG = biological target: T2, ADI-26921 IgG; test: SPR Carterra avidity, yeast anti-ID
T2 construct: anti-CD3 IgG
T2 sequence (VH, as listed by the source limits assumed, chain 1 of 2): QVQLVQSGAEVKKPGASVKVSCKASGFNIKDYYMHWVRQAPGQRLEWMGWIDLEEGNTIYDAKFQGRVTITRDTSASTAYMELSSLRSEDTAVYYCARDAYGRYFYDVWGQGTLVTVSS
T2 sequence (VL, as listed by the source limits assumed, chain 2 of 2): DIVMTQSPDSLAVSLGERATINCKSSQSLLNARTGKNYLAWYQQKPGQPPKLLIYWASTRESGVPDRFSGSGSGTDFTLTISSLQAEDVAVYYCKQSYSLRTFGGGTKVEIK
Outline: as §1

ADI-76362 = biological target: T3, ADI-76362; test: SPR Carterra avidity, yeast anti-ID
T3 construct: anti-CD3 antibody made in CHO cells, captured by anti-human Fc
T3 sequence (VH, as listed by the source, chain 1 of 2): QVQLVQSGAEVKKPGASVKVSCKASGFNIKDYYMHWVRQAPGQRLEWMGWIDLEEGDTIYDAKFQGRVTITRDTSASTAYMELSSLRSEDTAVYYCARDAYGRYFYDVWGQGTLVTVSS
Outline: as §1

ADI-26915 = biological target: T4, ADI-26915; test: SPR Carterra avidity, yeast anti-ID
T4 construct: anti-CD3 antibody made in CHO cells, captured by anti-human Fc
T4 sequence (VH, as listed by the source, chain 1 of 2): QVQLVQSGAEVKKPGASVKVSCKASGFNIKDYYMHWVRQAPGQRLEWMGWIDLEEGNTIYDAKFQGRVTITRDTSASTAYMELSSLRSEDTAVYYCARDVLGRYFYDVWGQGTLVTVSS
T4 sequence (VL, as listed by the source, chain 2 of 2): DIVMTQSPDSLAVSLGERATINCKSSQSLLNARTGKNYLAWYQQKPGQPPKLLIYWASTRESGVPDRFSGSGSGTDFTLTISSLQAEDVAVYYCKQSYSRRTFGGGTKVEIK
Outline: as §1

ADI-74968 = biological target: T5, ADI-74968; test: SPR Carterra avidity, yeast anti-ID
T5 construct: pH-dependent anti-CD3 antibody made in CHO cells
Outline: as §1

ADI-70327 = biological target: T6, ADI-70327; test: SPR Carterra avidity, yeast anti-ID
T6 construct: anti-CD3 antibody made in CHO cells, captured by anti-human Fc
T6 sequence (VH, as listed by the source limits assumed, chain 1 of 2): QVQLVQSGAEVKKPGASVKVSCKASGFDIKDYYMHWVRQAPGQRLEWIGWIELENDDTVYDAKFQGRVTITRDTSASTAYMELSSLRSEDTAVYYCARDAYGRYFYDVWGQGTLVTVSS
T6 sequence (VL, as listed by the source limits assumed, chain 2 of 2): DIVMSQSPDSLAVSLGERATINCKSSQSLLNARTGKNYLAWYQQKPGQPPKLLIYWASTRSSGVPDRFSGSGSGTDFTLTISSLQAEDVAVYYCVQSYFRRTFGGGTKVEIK
Outline: as §1

ADI-26913 IgG = biological target: T7, ADI-26913 IgG; test: SPR Carterra avidity, yeast anti-ID
T7 construct: anti-CD3 IgG
Outline: as §1

ADI-48592 = biological target: T8, ADI-48592; test: SPR Carterra avidity, yeast anti-ID
T8 construct: pH-dependent anti-CD3 antibody made in CHO cells
Outline: as §1

ADI-70330 = biological target: T9, ADI-70330; test: SPR Carterra avidity, yeast anti-ID
T9 construct: anti-CD3 antibody made in CHO cells, captured by anti-human Fc
Outline: as §1

ADI-67450 = biological target: T10, ADI-67450; test: SPR Carterra avidity, yeast anti-ID
T10 construct: anti-CD3 antibody made in CHO cells, captured by anti-human Fc
T10 sequence (VH, as listed by the source limits assumed, chain 1 of 2): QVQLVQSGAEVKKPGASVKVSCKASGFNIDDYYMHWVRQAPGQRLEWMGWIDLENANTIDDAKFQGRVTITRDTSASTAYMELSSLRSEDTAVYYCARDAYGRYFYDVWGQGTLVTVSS
Outline: as §1

ADI-74965 = biological target: T11, ADI-74965; test: SPR Carterra avidity, yeast anti-ID
T11 construct: pH-dependent anti-CD3 antibody made in CHO cells
Outline: as §1

ADI-48587 = biological target: T12, ADI-48587; test: SPR Carterra avidity, yeast anti-ID
T12 construct: pH-dependent anti-CD3 antibody made in CHO cells
Outline: as §1

ADI-70326 = biological target: T13, ADI-70326; test: SPR Carterra avidity, yeast anti-ID
T13 construct: anti-CD3 antibody made in CHO cells, captured by anti-human Fc
T13 sequence (VH, as listed by the source limits assumed, chain 1 of 2): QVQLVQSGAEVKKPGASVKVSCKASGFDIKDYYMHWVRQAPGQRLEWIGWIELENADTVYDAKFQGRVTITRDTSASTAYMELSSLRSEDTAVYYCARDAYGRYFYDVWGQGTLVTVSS
Outline: as §1

ADI-67445 = biological target: T14, ADI-67445; test: SPR Carterra avidity, yeast anti-ID
T14 construct: anti-CD3 antibody made in CHO cells, captured by anti-human Fc
T14 sequence (VH, as listed by the source limits assumed, chain 1 of 2): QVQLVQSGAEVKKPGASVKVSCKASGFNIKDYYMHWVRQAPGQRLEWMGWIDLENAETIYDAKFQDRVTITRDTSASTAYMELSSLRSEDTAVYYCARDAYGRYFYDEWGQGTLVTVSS
Outline: as §1

ADI-48576 = biological target: T15, ADI-48576; test: SPR Carterra avidity, yeast anti-ID
T15 construct: pH-dependent anti-CD3 antibody made in CHO cells
T15 sequence (VH, as listed by the source, chain 1 of 2): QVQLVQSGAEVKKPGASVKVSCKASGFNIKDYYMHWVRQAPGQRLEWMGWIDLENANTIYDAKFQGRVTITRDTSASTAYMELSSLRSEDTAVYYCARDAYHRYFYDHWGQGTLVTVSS
T15 sequence (VL, as listed by the source, chain 2 of 2): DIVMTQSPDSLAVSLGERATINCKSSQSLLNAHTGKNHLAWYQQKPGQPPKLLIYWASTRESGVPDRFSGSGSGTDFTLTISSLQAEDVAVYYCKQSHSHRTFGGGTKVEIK
Outline: as §1

ADI-76358 = biological target: T16, ADI-76358; test: SPR Carterra avidity, yeast anti-ID
T16 construct: anti-CD3 antibody made in CHO cells, captured by anti-human Fc
T16 sequence (VH, as listed by the source, chain 1 of 2): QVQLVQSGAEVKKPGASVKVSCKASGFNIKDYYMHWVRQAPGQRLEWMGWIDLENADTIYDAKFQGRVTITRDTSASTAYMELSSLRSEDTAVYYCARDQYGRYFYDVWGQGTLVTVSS
Outline: as §1

ADI-26943 = biological target: T17, ADI-26943; test: SPR Carterra avidity, yeast anti-ID
T17 construct: anti-CD3 antibody made in CHO cells, captured by anti-human Fc
Outline: as §1

ADI-26912 = biological target: T18, ADI-26912; test: SPR Carterra avidity, yeast anti-ID
T18 construct: anti-CD3 antibody made in CHO cells, captured by anti-human Fc
T18 sequence (VH, as listed by the source, chain 1 of 2): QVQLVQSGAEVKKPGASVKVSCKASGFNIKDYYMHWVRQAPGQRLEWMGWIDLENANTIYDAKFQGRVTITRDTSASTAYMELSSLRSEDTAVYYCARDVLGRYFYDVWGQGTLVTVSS
Outline: as §1

ADI-26924 = biological target: T19, ADI-26924; test: SPR Carterra avidity, yeast anti-ID
T19 construct: anti-CD3 antibody made in CHO cells, captured by anti-human Fc
T19 sequence (VH, as listed by the source, chain 1 of 2): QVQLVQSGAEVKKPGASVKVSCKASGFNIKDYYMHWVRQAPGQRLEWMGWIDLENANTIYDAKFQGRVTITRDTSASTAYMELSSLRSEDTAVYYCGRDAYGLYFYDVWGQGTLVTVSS
Outline: as §1

ADI-26909 = biological target: T20, ADI-26909; test: SPR Carterra avidity, yeast anti-ID
T20 construct: anti-CD3 antibody made in CHO cells, captured by anti-human Fc
T20 sequence (VH, as listed by the source limits assumed, chain 1 of 2): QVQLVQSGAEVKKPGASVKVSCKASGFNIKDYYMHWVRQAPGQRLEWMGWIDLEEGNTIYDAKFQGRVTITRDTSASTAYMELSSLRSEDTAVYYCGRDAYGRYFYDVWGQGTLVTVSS
Outline: as §1

ADI-67447 = biological target: T21, ADI-67447; test: SPR Carterra avidity, yeast anti-ID
T21 construct: anti-CD3 antibody made in CHO cells, captured by anti-human Fc
Outline: as §1

ADI-76360 = biological target: T22, ADI-76360; test: SPR Carterra avidity, yeast anti-ID
T22 construct: anti-CD3 antibody made in CHO cells, captured by anti-human Fc
T22 sequence (VH, as listed by the source, chain 1 of 2): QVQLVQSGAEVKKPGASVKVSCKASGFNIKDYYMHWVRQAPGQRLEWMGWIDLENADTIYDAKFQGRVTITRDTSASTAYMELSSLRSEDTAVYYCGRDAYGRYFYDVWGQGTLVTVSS
Outline: as §1

ADI-76359 = biological target: T23, ADI-76359; test: SPR Carterra avidity, yeast anti-ID
T23 construct: anti-CD3 antibody made in CHO cells, captured by anti-human Fc
T23 sequence (VH, as listed by the source, chain 1 of 2): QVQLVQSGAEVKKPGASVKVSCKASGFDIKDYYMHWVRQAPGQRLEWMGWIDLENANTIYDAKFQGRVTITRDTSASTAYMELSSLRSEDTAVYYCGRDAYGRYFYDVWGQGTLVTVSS
Outline: as §1

ADI-26916 IgG = biological target: T24, ADI-26916 IgG; test: SPR Carterra avidity, yeast anti-ID
T24 construct: anti-CD3 IgG
T24 sequence (VH, as listed by the source, chain 1 of 2): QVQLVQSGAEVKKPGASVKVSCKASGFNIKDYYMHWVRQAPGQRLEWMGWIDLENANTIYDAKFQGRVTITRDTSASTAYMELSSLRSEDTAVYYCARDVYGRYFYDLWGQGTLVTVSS
Outline: as §1

ADI-74966 = biological target: T25, ADI-74966; test: SPR Carterra avidity, yeast anti-ID
T25 construct: pH-dependent anti-CD3 antibody made in CHO cells
Outline: as §1

ADI-48650 = biological target: T26, ADI-48650; test: SPR Carterra avidity, yeast anti-ID
T26 construct: pH-dependent anti-CD3 antibody made in CHO cells
T26 sequence (VH, as listed by the source, chain 1 of 2): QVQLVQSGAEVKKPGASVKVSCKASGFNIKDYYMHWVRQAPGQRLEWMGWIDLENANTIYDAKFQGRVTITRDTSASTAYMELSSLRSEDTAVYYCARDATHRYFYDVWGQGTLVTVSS
T26 sequence (VL, as listed by the source, chain 2 of 2): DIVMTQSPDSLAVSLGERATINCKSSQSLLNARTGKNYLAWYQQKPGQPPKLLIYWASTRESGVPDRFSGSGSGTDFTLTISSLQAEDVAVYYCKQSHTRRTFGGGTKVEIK
Outline: as §1

ADI-26919 = biological target: T27, ADI-26919; test: SPR Carterra avidity, yeast anti-ID
T27 construct: anti-CD3 antibody made in CHO cells, captured by anti-human Fc
Outline: as §1

ADI-76361 = biological target: T28, ADI-76361; test: SPR Carterra avidity, yeast anti-ID, *koff limit
T28 construct: anti-CD3 antibody made in CHO cells, captured by anti-human Fc
Outline: as §1

ADI-50024 = biological target: T29, ADI-50024; test: SPR Carterra avidity, yeast anti-ID, *koff limit
T29 construct: anti-CD3 antibody made in CHO cells, captured by anti-human Fc
Outline: as §1

ADI-74967 = biological target: T30, ADI-74967; test: SPR Carterra avidity, yeast anti-ID, *koff limit
T30 construct: pH-dependent anti-CD3 antibody made in CHO cells
Outline: as §1

ADI-76357 = biological target: T31, ADI-76357; test: SPR Carterra avidity, yeast anti-ID, *koff limit
T31 construct: anti-CD3 antibody made in CHO cells, captured by anti-human Fc
T31 sequence (VH, as listed by the source, chain 1 of 2): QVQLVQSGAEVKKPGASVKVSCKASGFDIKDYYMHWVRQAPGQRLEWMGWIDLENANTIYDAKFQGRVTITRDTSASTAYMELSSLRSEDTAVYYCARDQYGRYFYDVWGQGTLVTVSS
Outline: as §1

ADI-26920 IgG = biological target: T32, ADI-26920 IgG; test: SPR Carterra avidity, yeast anti-ID, *koff limit
T32 construct: anti-CD3 IgG
Outline: as §1

ADI-26906 IgG = biological target: T33, ADI-26906 IgG; test: SPR Carterra avidity, yeast anti-ID, *koff limit
T33 construct: anti-CD3 IgG
Outline: as §1

ADI-22523 Fab = biological target: T34, ADI-22523 Fab; test: BLI; tip anti-ID IgG, solution ADI-22523 Fab
T34 construct: anti-CD3 Fab by papain digestion of the IgG
Outline: (§2)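 Bio-layer interferometry with anti-ID IgG loaded on AHC tips. KD (koff/kon) from 1:1 binding model fit; avid format.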

ADI-22523 IgG = biological target: T35, ADI-22523 IgG; test: BLI; tip anti-ID IgG, solution ADI-22523 IgG
T35 construct: anti-CD3 IgG
Outline: as §2

T1 sequence (VH, as listed by the source, chain 1 of 2): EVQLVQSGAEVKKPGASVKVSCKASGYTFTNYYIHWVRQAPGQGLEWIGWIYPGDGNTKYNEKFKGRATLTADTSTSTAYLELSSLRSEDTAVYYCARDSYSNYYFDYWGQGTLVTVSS
T1 sequence (VL, as listed by the source, chain 2 of 2): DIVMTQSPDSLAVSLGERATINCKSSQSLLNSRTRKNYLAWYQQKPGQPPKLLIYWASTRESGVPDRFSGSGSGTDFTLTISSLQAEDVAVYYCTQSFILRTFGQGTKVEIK

B1: ADI-34136 (antibody, V domains shown)
VH: QVQLVQSGAEVKKPGSSVKVSCKASGGTFSSYAISWVRQAPGQGLEWMGGIIPIFGTANYAQKFQGRVTITADESTSTAYMELSSLRSEDTAVYYCARGAPNYYGSGGYDDGWFDPWGQGTLVTVSS
VL: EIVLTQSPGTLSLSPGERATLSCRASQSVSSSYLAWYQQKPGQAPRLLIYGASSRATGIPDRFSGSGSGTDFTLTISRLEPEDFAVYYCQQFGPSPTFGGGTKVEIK
notes: anti-ID IgG
Kd (CTL-62223): 1.2 nM
Kd (ADI-26921 IgG): 0.18 nM
Kd (ADI-76362): 0.14 nM
binding result (ADI-26915): binds
Kd (ADI-74968): 1.2 nM
Kd (ADI-70327): 2 nM
Kd (ADI-26913 IgG): 0.18 nM
binding result (ADI-48592): binds
Kd (ADI-70330): 0.42 nM
Kd (ADI-67450): 0.56 nM
Kd (ADI-74965): 9.4 nM
Kd (ADI-48587): 1.9 nM
Kd (ADI-70326): 2.1 nM
Kd (ADI-67445): 0.34 nM
Kd (ADI-48576): 29 nM
Kd (ADI-76358): 0.73 nM
Kd (ADI-26943): 0.25 nM
binding result (ADI-26912): binds
Kd (ADI-26924): 0.17 nM
Kd (ADI-26909): 0.3 nM
Kd (ADI-67447): 0.18 nM
Kd (ADI-76360): 0.35 nM
Kd (ADI-76359): 0.12 nM
Kd (ADI-26916 IgG): 0.35 nM
Kd (ADI-74966): 0.64 nM
Kd (ADI-48650): 3.3 nM
Kd (ADI-26919): 0.16 nM
Kd (ADI-76361): 0.1 nM
Kd (ADI-50024): 0.42 nM
Kd (ADI-74967): 0.15 nM
Kd (ADI-76357): 0.12 nM
Kd (ADI-26920 IgG): 0.14 nM
Kd (ADI-26906 IgG): 0.25 nM
Kd (ADI-22523 Fab): 30.4 nM
Kd (ADI-22523 IgG): 0.75 nM
